This test has as its system HTLV-1 LTR promoter transactivation by HTLV-1 Tax. The test is described as follows: Transactivation assay, HTLV-1 LTR luciferase reporter with HTLV-1 Tax. The format is cell-based. The note with it: HEK293 cells co-transfected with pHTLV1LTR-Luc, HTLV-1 Tax and the human ORF; relative luciferase activity 24 h post-transfection; positive if >=2 or <=0.5 and p<0.05. An excerpt: Twenty-four hours post-transfection, cells were washed three times with PBS, lysed and luciferase activities determined from two independent transfection experiments in triplicate. We computed a paired t-test to assess the difference of the means between samples with and without the human interactor. For a trial to be considered positive, the relative luciferase activities has to be >=2 or <=0.5, and the p-value of the t-test<0.05.
Expression vectors encoding human ORFs and HIV-1 Tat or HTLV-1 Tax proteins were tested in a transactivation reporter assay against reporter plasmids harboring HIV-1 or HTLV-1 viral promoter sequences cloned upstream of the luciferase reporter gene. […] Wherever not expressly specified, constructs used herein were generally made by sub-cloning entry clones from the ORFeome V3.1 into suitable destination vectors.
(In general: Reporter assays use an easily measured gene product as a stand-in for the process of interest.)

B1: LENG1: human host interactor protein, Gene ID 79165, expressed from transfected ORF vector (protein)
chain: MNILPKKSWHVRNKDNVARVRRDEAQAREEEKERERRVLLAQQEARTEFLRKKARHQNSLPELEAAEAGAPGSGPVDLFRELLEEGKGVIRGNKEYKEEKRQEKERQEKALGILTYLGQSAAEAQTQPPWYQLPPGRGGPPPGPAPDEKIKSRLDPLREMQKHLGKKRQHGGDEGSRSRKEKEGSEKQRPKEPPSLDQLRAERLRREAAERSRAEALLARVQGRALQEGQPEEDETDDRRRRYNSQFNPQLARRPRQQDPHLTH
B1 came in with an HTLV_LTR transactiv. of 0.34 fold change.

B2: NEFL: human host interactor protein, Gene ID 4747, expressed from transfected ORF vector (protein)
chain: MSSFSYEPYYSTSYKRRYVETPRVHISSVRSGYSTARSAYSSYSAPVSSSLSVRRSYSSSSGSLMPSLENLDLSQVAAISNDLKSIRTQEKAQLQDLNDRFASFIERVHELEQQNKVLEAELLVLRQKHSEPSRFRALYEQEIRDLRLAAEDATNEKQALQGEREGLEETLRNLQARYEEEVLSREDAEGRLMEARKGADEAALARAELEKRIDSLMDEISFLKKVHEEEIAELQAQIQYAQISVEMDVTKPDLSAALKDIRAQYEKLAAKNMQNAEEWFKSRFTVLTESAAKNTDAVRAAKDEVSESRRLLKAKTLEIEACRGMNEALEKQLQELEDKQNADISAMQDTINKLENELRTTKSEMARYLKEYQDLLNVKMALDIEIAAYRKLLEGEETRLSFTSVGSITSGYSQSSQVFGRSAYGGLQTSSYLMSTRSFPSYYTSHVQEEQIEVEETIEAAKAEEAKDEPPSEGEAEEEEKDKEEAEEEEAAEEEEAAKEESEEAKEEEEGGEGEEGEETKEAEEEEKKVEGAGEEQAAKKKD
B2 had an HTLV_LTR transactiv. of 0.45 fold change.

B3: KLC3: human host interactor protein, Gene ID 147700, expressed from transfected ORF vector (protein)
chain: MSVQVAAPGSAGLGPERLSPEELVRQTRQVVQGLEALRAEHHGLAGHLAEALAGQGPAAGLEMLEEKQQVVSHSLEAIELGLGEAQVLLALSAHVGALEAEKQRLRSQARRLAQENVWLREELEETQRRLRASEESVAQLEEEKRHLEFLGQLRQYDPPAESQQSESPPRRDSLASLFPSEEEERKGPEAAGAAAAQQGGYEIPARLRTLHNLVIQYAGQGRYEVAVPLCRQALEDLERSSGHCHPDVATMLNILALVYRDQNKYKEATDLLHDALQIREQTLGPEHPAVAATLNNLAVLYGKRGRYREAEPLCQRALEIREKVLGADHPDVAKQLNNLALLCQNQGKFEDVERHYARALSIYEALGGPHDPNVAKTKNNLASAYLKQNKYQQAEELYKEILHKEDLPAPLGAPNTGTAGDAEQALRRSSSLSKIRESIRRGSEKLVSRLRGEAAAGAAGMKRAMSLNTLNVDAPRAPGTQFPSWHLDKAPRTLSASTQDLSPH
As for B3, the HTLV_LTR transactiv. was found to be 0.31 fold change.

B4: MAD1L1: human host interactor protein, Gene ID 8379, expressed from transfected ORF vector (protein)
chain: MEDLGENTMVLSTLRSLNNFISQRVEGGSGLDISTSAPGSLQMQYQQSMQLEERAEQIRSKSHLIQVEREKMQMELSHKRARVELERAASTSARNYEREVDRNQELLTRIRQLQEREAGAEEKMQEQLERNRQCQQNLDAASKRLREKEDSLAQAGETINALKGRISELQWSVMDQEMRVKRLESEKQELQEQLDLQHKKCQEANQKIQELQASQEARADHEQQIKDLEQKLSLQEQDAAIVKNMKSELVRLPRLERELKQLREESAHLREMRETNGLLQEELEGLQRKLGRQEKMQETLVGLELENERLLAKLQSWERLDQTMGLSIRTPEDLSRFVVELQQRELALKDKNSAVTSSARGLEKARQQLQEELRQVSGQLLEERKKRETHEALARRLQKRVLLLTKERDGMRAILGSYDSELTPAEYSPQLTRRMREAEDMVQKVHSHSAEMEAQLSQALEELGGQKQRADMLEMELKMLKSQSSSAEQSFLFSREEADTLRLKVEELEGERSRLEEEKRMLEAQLERRALQGDYDQSRTKVLHMSLNPTSVARQRLREDHSQLQAECERLRGLLRAMERGGTVPADLEAAAASLPSSKEVAELKKQVESAELKNQRLKEVFQTKIQEFRKACYTLTGYQIDITTENQYRLTSLYAEHPGDCLIFKATSPSGSKMQLLETEFSHTVGELIEVHLRRQDSIPAFLSSLTLELFSRQTVA
As for B4, the HTLV_LTR transactiv. came to 0.20 fold change.

B5: MYEF2: human host interactor protein, Gene ID 50804, expressed from transfected ORF vector (protein)
chain: MADANKAEVPGATGGDSPHLQPAEPPGEPRREPHPAEAEKQQPQHSSSSNGVKMENDESAKEEKSDLKEKSTGSKKANRFHPYSKDKNSGAGEKKGPNRNRVFISNIPYDMKWQAIKDLMREKVGEVTYVELFKDAEGKSRGCGVVEFKDEEFVKKALETMNKYDLSGRPLNIKEDPDGENARRALQRTGGSFPGGHVPDMGSGLMNLPPSILNNPNIPPEVISNLQAGRLGSTIFVANLDFKVGWKKLKEVFSIAGTVKRADIKEDKDGKSRGMGTVTFEQAIEAVQAISMFNGQFLFDRPMHVKMDDKSVPHEEYRSHDGKTPQLPRGLGGIGMGLGPGGQPISASQLNIGGVMGNLGPGGMGMDGPGFGGMNRIGGGIGFGGLEAMNSMGGFGGVGRMGELYRGAMTSSMERDFGRGDIGINQGFGDSFGRLGSAMIGGFAGRIGSSNMGPVGSGISGGMGSMNSVTGGMGMGLDRMSSSFDRMGPGIGAILERSIDMDRGFLSGPMGSGMRERIGSKGNQIFVRNLPFDLTWQKLKEKFSQCGHVMFAEIKMENGKSKGCGTVRFDSPESAEKACRIMNGIKISGREIDVRLDRNA
In turn, B5 gave an HTLV_LTR transactiv. of 2.53 fold change.

B6: KIF9: human host interactor protein, Gene ID 64147, expressed from transfected ORF vector (protein)
chain: MGTRKKVHAFVRVKPTDDFAHEMIRYGDDKRSIDIHLKKDIRRGVVNNQQTDWSFKLDGVLHDASQDLVYETVAKDVVSQALDGYNGTIMCYGQTGAGKTYTMMGATENYKHRGILPRALQQVFRMIEERPTHAITVRVSYLEIYNESLFDLLSTLPYVGPSVTPMTIVENPQGVFIKGLSVHLTSQEEDAFSLLFEGETNRIIASHTMNKNSSRSHCIFTIYLEAHSRTLSEEKYITSKINLVDLAGSERLGKSGSEGQVLKEATYINKSLSFLEQAIIALGDQKRDHIPFRQCKLTHALKDSLGGNCNMVLVTNIYGEAAQLEETLSSLRFASRMKLVTTEPAINEKYDAERMVKNLEKELALLKQELAIHDSLTNRTFVTYDPMDEIQIAEINSQVRRYLEGTLDEIDIISLRQIKEVFNQFRVVLSQQEQEVESTLRRKYTLIDRNDFAAISAIQKAGLVDVDGHLVGEPEGQNFGLGVAPFSTKPGKKAKSKKTFKEPLSSLARKEGASSPVNGKDLDYVSTSKTQLVPSSKDGDVKDMLSRDRETSSIEPLPSDSPKEELRPIRPDTPPSKPVAFEEFKNEQGSEINRIFKENKSILNERRKRASETTQHINAIKREIDVTKEALNFQKSLREKQGKYENKGLMIIDEEEFLLILKLKDLKKQYRSEYQDLRDLRAEIQYCQHLVDQCRHRLLMEFDIWYNESFVIPEDMQMALKPGGSIRPGMVPVNRIVSLGEDDQDKFSQLQQRVLPEGPDSISFYNAKVKIEQKHNYLKTMMGLQQAHRK
On to B6, for which the HTLV_LTR transactiv. amounted to 0.37 fold change.

Values taken from patent US20120090043A1, “TARGETS FOR RETROVIRUS ASSOCIATED DISEASES” (priority 2009, published 2012).
